Measured values published in patent US20250325672A1.

How the values were obtained:
[1] = target: SARS-CoV-2 protein used in the SPR assay of Example 2 (not named); test: SPR
[2] = target: Biotinylated 2019-nCoV (COVID-19) S1 protein (16-685), His, Avitag (SARS-CoV-2), P0DTC2; test: SPR, Biacore T200, geomean

| Binder | pKD [1] | Kd [2] |
| --- | --- | --- |
| CVNKHNPVCRFYC (modifications not checked) [BCY16911] | 8 |  |
| CIPLDWTCMIAC (modifications not checked) [BCY18707] |  | 2440 nM |
